{"source": "patent US6727084B1", "about": "“Cold-active beta-galactosidase, the process for its preparation and the use thereof” (Universite de Liege, priority 1999, dated 2004)", "substrate": "OC[C@H]1O[C@@H](O[C@H]2[C@H](O)[C@@H](O)C(O)O[C@@H]2CO)[C@H](O)[C@@H](O)[C@H]1O", "test": "kinetics of LMG P-19143 β-galactosidase with lactose as substrate (galactose dehydrogenase assay)", "type": "biochemical, Pseudoalteromonas haloplanktis LMG P-19143", "settings": "other: lactose (1 mM to 50 mM) as substrate, 25° C., pH 7.3", "text": "The definition of enzyme activity units can be defined according to the substrate used with lactose as a substrate, the unit of activity is defined as the amount of enzyme which releases one micro-mole glucose in one minute under standard reaction conditions (temperature, pH). Another commonly used substrate is ortho-nitrophenyl-β-D galactopyranoside (ONPG) and in this case, the unit of activity is defined as the amount of enzyme which hydrolyses one micro-mole of ONPG in one minute under standard reaction conditions.\nKm was also determined at 25° C. with lactose (1 mM to 50 mM) as a substrate.", "data": [{"protein": "Pseudoalteromonas haloplanktis LMG P-19143 cold-active β-galactosidase (lac Z), native, SEQ ID NO: 2 (Pseudoalteromonas haloplanktis) (protein, ORF of 1038 residues) MTSLQHIINRRDWENPITVQVNQVKAHSPLNGFKTIEDARENTQSQKKSLNGQWDFKLFDKPEAVDESLLYEKISKELSGDWQSITVPSNWQLHGFDKPIYCNVKYPFAVNPPFVPSDNPTGCYRTEFTITPEQLTQRNHIIFEGVNSAFHLWCNGQWVGYSQDSRLPSEFDLSELLVVGTNRIAVMVIRWSDGSYLEDQDMWWLSGIFRDVNLLTKPQSQIRDVFITPDLDACYRDATLHIKTAINAPNNYQVAVQIFDGKTSLCEPKIQSTNNKRVDEKGGWSDVVFQTIAIRSPKKWTAETPYLYRCVVSLLDEQGNTVDVEAYNIGFRKVEMLNGQLCVNGKPLLIRGVNRHEHHPENGHAVSTADMIEDIKLMKQNNFNAVRTAHYPNHPLFYELCDELGLYVVDEANIETHGMFPMGRLASDPLWAGAFMSRYTQMVERDKNHASIIIWSLGNECGHGANHDAMYGWSKSFDPSRPVQYEGGGANTTATDIICPMYSRVDTDIKDDAVPKYSIKKWLSLPGETRPLILCEYAHAMGNSLGSFDDYWQAFREYPRLQGGFIWDWVDQGLSKIDENGKHYWAYGGDFGDELNDRQFCINGLLFPDRTPHPSLFEAKYSQQHLQFTLREQNQNQNQNQYSIDVFSDYVFRHTDNEKLVWQLIQNGVCVEQGEMALNIAPQSTHTLTIKTKTAFEHGAQYYLNLDVALINDSHFANANHVMDSEQFKLINSNNLNSKSFASATEKSVISVNETDSHLSIENNTFKLVFNQQSGLIEQWLQDDTQVISSPLVDNFYRAPLDNDIGVSEVDNLDPNAWEARWSRAGIGQWQRTCSSINAVQSSVDVRITCVFNYEFNGVLQAQTQWLYTLNNTGTISLNVDVNLNDTLPPMPRIGLSTTINKQSDTKVNWLGLGPFENYPDRKSAARFGYYSLSLNELYTPYIFPTDNGLRSDCQLLSINNLIVTGAFLFAASEYSQNMLTQAKHTNELIADDCIHVHIDHQHMGVGGDDSWSPSTHKEYLLEQKNYNYSLTLTGGITT", "values": [{"measurement": "Km", "value": 2400, "unit": "µM"}]}]}
